Key:
[1] = molecular target: RsAGDP1 AGD12 (residues 26–180) (Raphanus sativus); experiment: ITC; Microcal PEAQ-ITC, 25 °C; protein at 0.1 mM, peptide at 1.0–1.5 mM in the same buffer; fit with Origin 7.0
[2] = molecular target: full-length AtAGDP1 (Arabidopsis thaliana) (UniProt Q500V5); experiment: as above
full-length AtAGDP1 (Arabidopsis thaliana), sequence (Q500V5 whole entry): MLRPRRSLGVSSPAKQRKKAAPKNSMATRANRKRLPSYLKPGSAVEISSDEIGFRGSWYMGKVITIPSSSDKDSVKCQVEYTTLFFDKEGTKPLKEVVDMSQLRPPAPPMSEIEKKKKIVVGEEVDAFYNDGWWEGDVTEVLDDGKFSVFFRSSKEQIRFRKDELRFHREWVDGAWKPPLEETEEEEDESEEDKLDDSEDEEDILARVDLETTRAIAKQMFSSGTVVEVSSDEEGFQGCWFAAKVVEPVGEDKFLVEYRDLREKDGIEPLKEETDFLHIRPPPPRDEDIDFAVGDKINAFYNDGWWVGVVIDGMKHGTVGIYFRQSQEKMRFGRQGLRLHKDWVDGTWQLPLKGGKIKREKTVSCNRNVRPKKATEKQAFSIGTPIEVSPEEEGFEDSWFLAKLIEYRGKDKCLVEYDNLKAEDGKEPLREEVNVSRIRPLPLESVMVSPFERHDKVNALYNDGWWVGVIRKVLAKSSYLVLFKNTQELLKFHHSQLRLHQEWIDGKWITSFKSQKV

Substance	fold decrease of binding against H3K9me2 [1]	stoichiometry N [2]
H3K4me3K9me2 peptide	5 fold	
H3K9me2 peptide (ITC)		3

Source: PMC6208443, “Arabidopsis AGDP1 links H3K9me2 to DNA methylation in heterochromatin” (Nature Communications, 2018)
